Test results published in paper PMC2764113 (Molecular Microbiology, 2009).
Positions count from the first letter of the chain named. Names may count otherwise.

B1: Q115R Sin (enzyme, Staphylococcus aureus (plasmid pI9789))
chain: MIIGYARVSSLDQNLERQLENLKTFGAEKIFTEKQSGKSIENRPILQKALNFVRMGDRFIVESIDRLGRNYNEVIHTVNYLKDKEVQLMITSLPMMNEVIGNPLLDKFMKDLIIRILAMVSEQERNESKRRQAQGIQVAKEKGVYKGRPLLYSPNAKDPQKRVIYHRVVEMLEEGQAISKIAKEVNITRQTVYRIKHDNGLS
B2: T77I/I100T/Q115R Sin (enzyme, Staphylococcus aureus (plasmid pI9789))
chain: B1 chain with T77I, I100T

Target: the molecule itself
Assay: native gel or EMSA

| Protein | binding result |
| --- | --- |
| B1 | binds |
| B2 | binds |
